PMC1188515

Key:
ScMre11p [1] = target: T1, ScMre11p (Saccharomyces cerevisiae, UniProt P32829 1-692); assay: EMSA
T1 sequence: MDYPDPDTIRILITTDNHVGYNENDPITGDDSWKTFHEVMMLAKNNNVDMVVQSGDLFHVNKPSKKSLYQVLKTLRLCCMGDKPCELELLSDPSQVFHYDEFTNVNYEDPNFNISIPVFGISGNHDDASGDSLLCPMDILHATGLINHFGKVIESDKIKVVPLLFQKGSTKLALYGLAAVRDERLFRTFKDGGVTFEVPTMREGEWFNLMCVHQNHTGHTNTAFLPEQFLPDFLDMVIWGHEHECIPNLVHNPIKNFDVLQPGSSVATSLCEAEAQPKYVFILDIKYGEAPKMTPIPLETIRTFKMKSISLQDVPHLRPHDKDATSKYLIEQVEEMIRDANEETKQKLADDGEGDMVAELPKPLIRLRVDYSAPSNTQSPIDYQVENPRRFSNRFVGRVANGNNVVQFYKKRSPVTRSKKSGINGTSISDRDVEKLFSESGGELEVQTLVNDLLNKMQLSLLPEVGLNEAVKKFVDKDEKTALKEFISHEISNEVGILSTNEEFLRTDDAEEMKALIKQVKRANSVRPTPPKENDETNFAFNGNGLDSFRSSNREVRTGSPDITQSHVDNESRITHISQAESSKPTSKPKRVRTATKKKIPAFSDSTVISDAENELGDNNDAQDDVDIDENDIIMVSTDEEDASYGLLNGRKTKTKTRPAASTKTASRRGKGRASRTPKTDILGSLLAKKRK

ScMre11p [2] = target: T1, ScMre11p; assay: EMSA; remark: listed apart in the source

B1: 6G3 G4 DNA (structured_DNA)
DNA: AATTCTGGGTGTGTGGGTGTGTGGGTGTGTGGGTGTGTGGGTGTGTGGGTGTGG
ScMre11p [1]
  binding result: binds

## AATTCTGGGTGTGTGGGTGTGTGGGTGTGTGGGTGTGG (structured_DNA) [4G3 G4 DNA]
ScMre11p [2]
  Kd: 70 nM
